The values below are quoted from earlier work in publication PMC4114557.

The term Kd denotes the free concentration of one partner at which half of the binding sites on the other are occupied at equilibrium, for simple one-to-one binding.

Read-outs that look alike come from different tables or passages of the source.

The target of data set [1] is BtuB (Escherichia coli) (UniProt P06129).
Data set [2] addresses OmpF (Escherichia coli) (UniProt P02931).
Data set [3] has as its target Colicin E9 R-domain (Escherichia coli) (UniProt P09883).
In data set [4] the target is Colicin E3 R-domain (Escherichia coli) (UniProt P00646).
Data set [5] addresses OmpF (Escherichia coli) (UniProt P02931). The source holds these as a separate data set.
For data set [6], the target named is BtuB (Escherichia coli) (UniProt P06129). This is another data set of the same source.
For data set [7], the target named is OmpF (Escherichia coli) (UniProt P02931). The source holds these as a separate data set.
Data set [8] concerns the target BtuB (Escherichia coli) (UniProt P06129). This is another data set of the same source.

Sequence of UniProt P02931 (P02931 23-362): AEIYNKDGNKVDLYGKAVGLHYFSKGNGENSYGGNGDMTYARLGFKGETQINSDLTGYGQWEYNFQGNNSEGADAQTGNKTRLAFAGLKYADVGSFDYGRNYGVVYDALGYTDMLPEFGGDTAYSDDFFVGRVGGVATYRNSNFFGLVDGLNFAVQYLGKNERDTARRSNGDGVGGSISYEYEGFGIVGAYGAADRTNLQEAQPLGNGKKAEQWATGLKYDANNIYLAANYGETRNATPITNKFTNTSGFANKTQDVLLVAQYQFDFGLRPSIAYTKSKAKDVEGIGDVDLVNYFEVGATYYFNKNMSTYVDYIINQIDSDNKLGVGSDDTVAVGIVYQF

Consider “Colicin E2 R-domain (from UniProt P04419)”, for which the Kd with BtuB (Escherichia coli) [1] was 1 nM.
Take Colicin E9 OBS2 (from UniProt P09883): the Kd in the data set with OmpF (Escherichia coli) [2] is 24000 nM.
Regarding BtuB (from UniProt P06129), the Kd in data set [3] and in data set [4] was 1 nM each time.
As for Colicin E9 OBS1 (from UniProt P09883), in the data set with OmpF (Escherichia coli) [5], the Kd was 2000 nM.
“Colicin E3 R-domain (from UniProt P00646)”: the Kd with BtuB (Escherichia coli) [6] is 1 nM.
For “Colicin N T-domain (from UniProt P08083)”, in the data set with OmpF (Escherichia coli) [7], the Kd is 3000 nM.
For the substance “Colicin E9 R-domain (from UniProt P09883)”, the Kd with BtuB (Escherichia coli) [8] is 1 nM.
